One block for each binder: values may come before it.
Columns and labels:
Assay in all cases: two-hybrid library CCNG1;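 further: natural log of median RNA to DNA barcode read ratio; higher means stronger binding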
4H338-bA = target: T1, 4H338-bA
T1 chain: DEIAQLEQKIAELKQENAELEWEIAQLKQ

4H454-bA = target: T2, 4H454-bA
T2 chain: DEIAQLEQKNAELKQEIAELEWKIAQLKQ

4H1828-bA = target: T3, 4H1828-bA
T3 chain: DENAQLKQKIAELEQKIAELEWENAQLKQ

4H953-bA = target: T4, 4H953-bA
T4 chain: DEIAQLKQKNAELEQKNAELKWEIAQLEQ

4H607-bA = target: T5, 4H607-bA
T5 chain: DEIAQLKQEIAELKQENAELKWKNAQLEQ

4H331-bA = target: T6, 4H331-bA
T6 chain: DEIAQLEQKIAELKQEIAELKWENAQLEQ

4H72-bA = target: T7, 4H72-bA
T7 chain: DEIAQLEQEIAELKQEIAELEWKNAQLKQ

4H687-bA = target: T8, 4H687-bA
T8 chain: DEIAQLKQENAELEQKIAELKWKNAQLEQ

4H2667-bA = target: T9, 4H2667-bA
T9 chain: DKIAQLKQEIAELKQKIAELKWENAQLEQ

4H717-bA = target: T10, 4H717-bA
T10 chain: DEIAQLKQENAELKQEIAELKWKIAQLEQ

4H568-bA = target: T11, 4H568-bA
T11 chain: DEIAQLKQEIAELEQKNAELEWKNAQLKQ

4H3782-bA = target: T12, 4H3782-bA
T12 chain: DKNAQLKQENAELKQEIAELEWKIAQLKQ

4H348-bA = target: T13, 4H348-bA
T13 chain: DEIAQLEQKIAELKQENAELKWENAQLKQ

4H3427-bA = target: T14, 4H3427-bA
T14 chain: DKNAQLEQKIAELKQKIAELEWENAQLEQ

4H3112-bA = target: T15, 4H3112-bA
T15 chain: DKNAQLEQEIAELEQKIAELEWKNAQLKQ

4H2618-bA = target: T16, 4H2618-bA
T16 chain: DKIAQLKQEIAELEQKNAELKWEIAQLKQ

4H967-bA = target: T17, 4H967-bA
T17 chain: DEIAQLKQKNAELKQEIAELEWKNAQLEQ

P9A-bH = target: T18, P9A-bH
T18 chain: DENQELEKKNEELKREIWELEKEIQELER

4H754-bA = target: T19, 4H754-bA
T19 chain: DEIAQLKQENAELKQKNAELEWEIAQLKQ

4H2576-bA = target: T20, 4H2576-bA
T20 chain: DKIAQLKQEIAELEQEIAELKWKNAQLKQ

4H883-bA = target: T21, 4H883-bA
T21 chain: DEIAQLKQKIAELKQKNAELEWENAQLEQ

4H1845-bA = target: T22, 4H1845-bA
T22 chain: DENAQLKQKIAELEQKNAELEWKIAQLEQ

4H918-bA = target: T23, 4H918-bA
T23 chain: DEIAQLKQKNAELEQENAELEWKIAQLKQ

4H797-bA = target: T24, 4H797-bA
T24 chain: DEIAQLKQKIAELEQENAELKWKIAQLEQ

4H2442-bA = target: T25, 4H2442-bA
T25 chain: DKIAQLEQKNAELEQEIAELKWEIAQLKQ

4H3354-bA = target: T26, 4H3354-bA
T26 chain: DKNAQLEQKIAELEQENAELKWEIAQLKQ

4H492-bN = target: T27, 4H492-bN
T27 chain: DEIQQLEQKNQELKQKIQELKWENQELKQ

4H4001-bA = target: T28, 4H4001-bA
T28 chain: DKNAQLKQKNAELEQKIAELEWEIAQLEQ

4H3185-bA = target: T29, 4H3185-bA
T29 chain: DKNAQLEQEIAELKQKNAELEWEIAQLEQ

4H2729-bA = target: T30, 4H2729-bA
T30 chain: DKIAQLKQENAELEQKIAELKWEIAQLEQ

4H908-bA = target: T31, 4H908-bA
T31 chain: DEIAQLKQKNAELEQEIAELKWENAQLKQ

4H3855-bA = target: T32, 4H3855-bA
T32 chain: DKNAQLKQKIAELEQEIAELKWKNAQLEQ

4H2610-bA = target: T33, 4H2610-bA
T33 chain: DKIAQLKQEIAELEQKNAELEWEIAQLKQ

4H370-bA = target: T34, 4H370-bA
T34 chain: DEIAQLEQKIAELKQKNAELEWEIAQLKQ

4H3843-bA = target: T35, 4H3843-bA
T35 chain: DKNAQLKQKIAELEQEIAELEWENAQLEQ

4H1446-bA = target: T36, 4H1446-bA
T36 chain: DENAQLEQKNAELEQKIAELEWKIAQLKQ

4H462-bA = target: T37, 4H462-bA
T37 chain: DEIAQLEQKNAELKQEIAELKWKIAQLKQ

4H3606-bA = target: T38, 4H3606-bA
T38 chain: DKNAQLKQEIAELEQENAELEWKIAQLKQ

4H2697-bA = target: T39, 4H2697-bA
T39 chain: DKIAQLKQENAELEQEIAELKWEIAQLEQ

4H3189-bA = target: T40, 4H3189-bA
T40 chain: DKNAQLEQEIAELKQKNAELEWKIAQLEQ

4H932-bH = target: T41, 4H932-bH
T41 chain: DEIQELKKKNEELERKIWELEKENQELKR

4H3297-bH = target: T42, 4H3297-bH
T42 chain: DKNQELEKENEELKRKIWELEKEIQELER

4H2585-bH = target: T43, 4H2585-bH
T43 chain: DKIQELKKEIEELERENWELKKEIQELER

4H56-bH = target: T44, 4H56-bH
T44 chain: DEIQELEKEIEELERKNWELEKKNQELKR

4H349-bH = target: T45, 4H349-bH
T45 chain: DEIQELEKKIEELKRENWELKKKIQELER

4H235-bH = target: T46, 4H235-bH
T46 chain: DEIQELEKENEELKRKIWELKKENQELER

4H3381-bH = target: T47, 4H3381-bH
T47 chain: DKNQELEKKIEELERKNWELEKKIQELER

4H3364-bH = target: T48, 4H3364-bH
T48 chain: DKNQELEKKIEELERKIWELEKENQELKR

4H2518-bH = target: T49, 4H2518-bH
T49 chain: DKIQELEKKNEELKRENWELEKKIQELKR

4H2859-bH = target: T50, 4H2859-bH
T50 chain: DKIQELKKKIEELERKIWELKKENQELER

4H2233-bH = target: T51, 4H2233-bH
T51 chain: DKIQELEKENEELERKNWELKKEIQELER

4H2931-bH = target: T52, 4H2931-bH
T52 chain: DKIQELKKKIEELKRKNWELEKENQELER

4H2162-bH = target: T53, 4H2162-bH
T53 chain: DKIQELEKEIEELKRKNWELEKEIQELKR

4H3041-bH = target: T54, 4H3041-bH
T54 chain: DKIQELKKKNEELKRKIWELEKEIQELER

4H2444-bH = target: T55, 4H2444-bH
T55 chain: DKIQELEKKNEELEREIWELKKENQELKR

4H2253-bH = target: T56, 4H2253-bH
T56 chain: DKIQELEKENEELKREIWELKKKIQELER

4H949-bH = target: T57, 4H949-bH
T57 chain: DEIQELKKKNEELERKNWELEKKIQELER

4H2760-bH = target: T58, 4H2760-bH
T58 chain: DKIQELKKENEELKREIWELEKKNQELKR

4H796-bH = target: T59, 4H796-bH
T59 chain: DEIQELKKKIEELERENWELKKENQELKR

4H730-bH = target: T60, 4H730-bH
T60 chain: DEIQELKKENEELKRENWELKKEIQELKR

4H264-bH = target: T61, 4H264-bH
T61 chain: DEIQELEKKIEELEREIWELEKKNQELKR

4H264-bA = target: T62, 4H264-bA
T62 chain: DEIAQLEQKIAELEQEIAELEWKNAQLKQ

interaction score (4H338-bA): -1.89 | interaction score (4H454-bA): -1.06 | interaction score (4H1828-bA): 0.663 | interaction score (4H953-bA): -0.126 | interaction score (4H607-bA): -0.523 | interaction score (4H331-bA): -0.739 | interaction score (4H72-bA): -0.902 | interaction score (4H687-bA): -0.0353 | interaction score (4H2667-bA): 0.0606 | interaction score (4H717-bA): -1.09 | interaction score (4H568-bA): 0.727 | interaction score (4H3782-bA): 0.85 | interaction score (4H348-bA): -0.144 | interaction score (4H3427-bA): 0.974 | interaction score (4H3112-bA): 1.15 | interaction score (4H2618-bA): 0.132 | interaction score (4H967-bA): -0.0426 | interaction score (P9A-bH): 0.475 | interaction score (4H754-bA): -1.2 | interaction score (4H2576-bA): 0.0647 | interaction score (4H883-bA): -0.928 | interaction score (4H1845-bA): -0.511 | interaction score (4H918-bA): -0.412 | interaction score (4H797-bA): -0.153 | interaction score (4H2442-bA): 0.499 | interaction score (4H3354-bA): 0.0682 | interaction score (4H492-bN): -2.71 | interaction score (4H4001-bA): -0.562 | interaction score (4H3185-bA): -0.351 | interaction score (4H2729-bA): -0.137 | interaction score (4H908-bA): -0.276 | interaction score (4H3855-bA): -0.259
Binder: DENAQLKQKIAELEQKIAELEWENAQLKQ [4H1828-bA]

interaction score (4H338-bA): -0.241 | interaction score (4H454-bA): -0.131 | interaction score (4H1828-bA): -0.523 | interaction score (4H953-bA): -0.416 | interaction score (4H2610-bA): -0.647 | interaction score (4H607-bA): -0.535 | interaction score (4H331-bA): 1.79 | interaction score (4H72-bA): 1.16 | interaction score (4H687-bA): -0.607 | interaction score (4H370-bA): 0.183 | interaction score (4H2667-bA): 0.0853 | interaction score (4H717-bA): -0.295 | interaction score (4H568-bA): -0.418 | interaction score (4H3782-bA): 0.586 | interaction score (4H3427-bA): 0.256 | interaction score (4H3112-bA): 0.505 | interaction score (4H3843-bA): 2.01 | interaction score (4H2618-bA): 0.00602 | interaction score (4H1446-bA): 0.569 | interaction score (4H967-bA): -0.635 | interaction score (4H462-bA): -0.194 | interaction score (4H3606-bA): 0.144 | interaction score (4H754-bA): -0.817 | interaction score (4H2576-bA): 1.12 | interaction score (4H883-bA): 0.0122 | interaction score (4H1845-bA): -0.389 | interaction score (4H918-bA): -0.0235 | interaction score (4H2697-bA): -0.0949 | interaction score (4H3189-bA): -0.621 | interaction score (4H797-bA): -1.42 | interaction score (4H2442-bA): -1.04 | interaction score (4H3354-bA): -0.413 | interaction score (4H4001-bA): 1.86 | interaction score (4H3185-bA): -0.0587 | interaction score (4H2729-bA): 1.08 | interaction score (4H908-bA): -0.405 | interaction score (4H3855-bA): 0.209
Binder: DENAQLEQKNAELEQKIAELEWKIAQLKQ [4H1446-bA]

interaction score (4H932-bH): -0.531 | interaction score (4H3297-bH): 0.0958 | interaction score (4H2585-bH): 0.942 | interaction score (4H56-bH): 0.668 | interaction score (4H349-bH): 0.54 | interaction score (4H235-bH): 0.377 | interaction score (4H3381-bH): 0.0641 | interaction score (4H3364-bH): 0.498 | interaction score (4H2518-bH): 1 | interaction score (4H2859-bH): 0.783 | interaction score (4H2233-bH): 0.284 | interaction score (4H2931-bH): 0.798 | interaction score (4H2162-bH): 0.161 | interaction score (4H3041-bH): 0.641 | interaction score (4H2444-bH): 0.28 | interaction score (4H2253-bH): -0.234 | interaction score (4H949-bH): -1.64 | interaction score (4H2760-bH): 0.202 | interaction score (4H796-bH): -0.188 | interaction score (4H730-bH): -1.99 | interaction score (4H264-bH): 0.0138 | interaction score (4H264-bA): 0.1
Binder: DKIQELEKEIEELKRKNWELEKEIQELKR [4H2162-bH]
